# Tested on: Escherichia coli TOP10
# Assay: shrunken log2 fold change of peptide-encoding DNA abundance (4.5 h post-induction vs induction); higher = less antimicrobial activity (less host growth inhibition)
# Settings: time post-induction: 4.5 h; library: site-saturation at positions 5, 18, 19, 20
# 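Note: peptides expressed intracellularly from a pBAD plasmid library in pooled LB shake-flask culture, induced with 0.3% L-arabinose, DNA abundance read by NGS, three biological replicates, DESeq2 with apeglm shrinkage.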
row,Sequence,shrunken log2 fold change
1,RRIRKRPPRLPRPRPRPYIIPRP,-0.0823
2,RRIRGRPPRLPRPRPRPKKHPRP,0.655
3,RRIRYRPPRLPRPRPRPCRHPRP,-0.394
4,RRIRDRPPRLPRPRPRPILVPRP,0.0243
5,RRIRKRPPRLPRPRPRPFFDPRP,0.112
6,RRIRHRPPRLPRPRPRPNYIPRP,-1.35
7,RRIRIRPPRLPRPRPRPICLPRP,-0.197
8,RRIRARPPRLPRPRPRPASRPRP,0.44
9,RRIRSRPPRLPRPRPRPGGDPRP,0.514
10,RRIRMRPPRLPRPRPRPPHMPRP,0.296
11,RRIRNRPPRLPRPRPRPHNAPRP,-0.175
12,RRIRVRPPRLPRPRPRPTECPRP,0.00778
13,RRIRERPPRLPRPRPRPQSMPRP,-0.0801
14,RRIRARPPRLPRPRPRPKEFPRP,0.355
15,RRIRRRPPRLPRPRPRPKRPPRP,0.656
16,RRIRIRPPRLPRPRPRPEDRPRP,-0.0106
17,RRIRHRPPRLPRPRPRPTIDPRP,-0.252
18,RRIRERPPRLPRPRPRPSYRPRP,3.5
19,RRIRARPPRLPRPRPRPQQAPRP,0.308
20,RRIRYRPPRLPRPRPRPSCFPRP,-0.361
21,RRIRLRPPRLPRPRPRPWMHPRP,0.0873
22,RRIRHRPPRLPRPRPRPDAKPRP,-0.0555
23,RRIRQRPPRLPRPRPRPYATPRP,-0.326
24,RRIRLRPPRLPRPRPRPGAGPRP,0.448
25,RRIRWRPPRLPRPRPRPCENPRP,0.285

row,Sequence,shrunken log2 fold change
1,RRIRTRPPRLPRPRPRPWMKPRP,0.0159
2,RRIRHRPPRLPRPRPRPKQSPRP,-0.248
3,RRIRLRPPRLPRPRPRPKHCPRP,-0.207
4,RRIRKRPPRLPRPRPRPTSEPRP,0.79
5,RRIRVRPPRLPRPRPRPGFEPRP,0.554
6,RRIRLRPPRLPRPRPRPKYMPRP,-0.544
7,RRIRGRPPRLPRPRPRPWCSPRP,-0.0965
8,RRIRARPPRLPRPRPRPCGLPRP,-0.0341
9,RRIRIRPPRLPRPRPRPSQGPRP,-0.0729
10,RRIRLRPPRLPRPRPRPDTCPRP,-0.149
11,RRIRERPPRLPRPRPRPMIEPRP,-0.184
12,RRIRGRPPRLPRPRPRPCCPPRP,0.0328
13,RRIRSRPPRLPRPRPRPYCNPRP,-0.709
14,RRIRGRPPRLPRPRPRPEFRPRP,0.634
15,RRIRCRPPRLPRPRPRPAEMPRP,-0.0594
16,RRIRNRPPRLPRPRPRPPCLPRP,-0.236
17,RRIRIRPPRLPRPRPRPINIPRP,-1.41
18,RRIRWRPPRLPRPRPRPWWIPRP,0.109
19,RRIRKRPPRLPRPRPRPIGKPRP,0.0962
20,RRIRHRPPRLPRPRPRPVGRPRP,0.226
21,RRIRPRPPRLPRPRPRPKHCPRP,-0.0919
22,RRIRIRPPRLPRPRPRPYDWPRP,-0.593
23,RRIRLRPPRLPRPRPRPGACPRP,0.264
24,RRIRYRPPRLPRPRPRPADTPRP,-0.00151
25,RRIRGRPPRLPRPRPRPMWSPRP,0.89

row,Sequence,shrunken log2 fold change
1,RRIRARPPRLPRPRPRPWFNPRP,-0.142
2,RRIRPRPPRLPRPRPRPLFFPRP,0.0106
3,RRIRKRPPRLPRPRPRPDMKPRP,-0.0241
4,RRIRVRPPRLPRPRPRPPGFPRP,0.842
5,RRIRDRPPRLPRPRPRPSYEPRP,0.175
6,RRIRWRPPRLPRPRPRPRLPPRP,0.471
7,RRIRMRPPRLPRPRPRPNQRPRP,0.332
8,RRIRCRPPRLPRPRPRPNVFPRP,-0.24
9,RRIRVRPPRLPRPRPRPGLFPRP,0.0268
10,RRIRKRPPRLPRPRPRPQCCPRP,-0.101
11,RRIRDRPPRLPRPRPRPQCPPRP,-0.00693
12,RRIRNRPPRLPRPRPRPNHLPRP,-0.317
13,RRIRGRPPRLPRPRPRPLNHPRP,0.0752
14,RRIRERPPRLPRPRPRPEFAPRP,0.0144
15,RRIRKRPPRLPRPRPRPIYKPRP,-0.0701
16,RRIRMRPPRLPRPRPRPKTYPRP,-0.0099
17,RRIRIRPPRLPRPRPRPSTNPRP,-0.573
18,RRIRTRPPRLPRPRPRPMNAPRP,0.194
19,RRIRLRPPRLPRPRPRPLMWPRP,0.115
20,RRIRYRPPRLPRPRPRPAIQPRP,-0.316
21,RRIRHRPPRLPRPRPRPTCHPRP,-0.647
22,RRIRLRPPRLPRPRPRPPLIPRP,-0.258
23,RRIRKRPPRLPRPRPRPEHSPRP,0.00628
24,RRIRQRPPRLPRPRPRPIYMPRP,-0.113
25,RRIRPRPPRLPRPRPRPCCDPRP,0.249

row,Sequence,shrunken log2 fold change
1,RRIRRRPPRLPRPRPRPKDTPRP,0.0485
2,RRIRCRPPRLPRPRPRPDPKPRP,0.0617
3,RRIRNRPPRLPRPRPRPNVIPRP,-0.261
4,RRIRGRPPRLPRPRPRPGSYPRP,-0.242
5,RRIRSRPPRLPRPRPRPLMCPRP,-0.471
6,RRIRKRPPRLPRPRPRPCSEPRP,0.296
7,RRIRNRPPRLPRPRPRPTVIPRP,0.0591
8,RRIRFRPPRLPRPRPRPVHKPRP,-0.142
9,RRIRGRPPRLPRPRPRPWSVPRP,-0.131
10,RRIRSRPPRLPRPRPRPAEVPRP,-0.0708
11,RRIRPRPPRLPRPRPRPETGPRP,-0.0114
12,RRIRTRPPRLPRPRPRPCGEPRP,-0.23
13,RRIRCRPPRLPRPRPRPDWKPRP,0.0808
14,RRIRTRPPRLPRPRPRPSPDPRP,-0.331
15,RRIRDRPPRLPRPRPRPPVHPRP,0.105
16,RRIRHRPPRLPRPRPRPLDSPRP,-0.448
17,RRIRSRPPRLPRPRPRPFMNPRP,-0.147
18,RRIRTRPPRLPRPRPRPCMGPRP,-0.247
19,RRIRPRPPRLPRPRPRPDDSPRP,0.0427
20,RRIRVRPPRLPRPRPRPGYRPRP,-0.203
21,RRIRHRPPRLPRPRPRPYCTPRP,-0.18
22,RRIRQRPPRLPRPRPRPARAPRP,1.22
23,RRIRKRPPRLPRPRPRPNGHPRP,-0.0369
24,RRIRTRPPRLPRPRPRPCRAPRP,-0.0539
25,RRIRGRPPRLPRPRPRPSHMPRP,-0.207

row,Sequence,shrunken log2 fold change
1,RRIRDRPPRLPRPRPRPEPMPRP,0.035
2,RRIRIRPPRLPRPRPRPGSNPRP,-0.515
3,RRIRARPPRLPRPRPRPMKRPRP,0.223
4,RRIRTRPPRLPRPRPRPAYYPRP,0.0141
5,RRIRCRPPRLPRPRPRPIMDPRP,-0.5
6,RRIRVRPPRLPRPRPRPKRPPRP,0.32
7,RRIRCRPPRLPRPRPRPLPPPRP,0.733
8,RRIRDRPPRLPRPRPRPCNFPRP,-0.0419
9,RRIRFRPPRLPRPRPRPNDYPRP,-0.355
10,RRIRRRPPRLPRPRPRPICTPRP,0.391
11,RRIRHRPPRLPRPRPRPPDAPRP,0.348
12,RRIRRRPPRLPRPRPRPYIAPRP,-0.54
13,RRIRARPPRLPRPRPRPFSVPRP,-0.107
14,RRIRQRPPRLPRPRPRPTVPPRP,-0.0488
15,RRIRYRPPRLPRPRPRPRVWPRP,1.85
16,RRIRYRPPRLPRPRPRPAQLPRP,-0.392
17,RRIRMRPPRLPRPRPRPIQCPRP,-0.239
18,RRIRFRPPRLPRPRPRPTEGPRP,-0.289
19,RRIRQRPPRLPRPRPRPLYAPRP,-0.399
20,RRIRFRPPRLPRPRPRPFSNPRP,0.0406
21,RRIRFRPPRLPRPRPRPQNNPRP,-0.656
22,RRIRNRPPRLPRPRPRPQRMPRP,0.0535
23,RRIRCRPPRLPRPRPRPHDRPRP,-0.0905
24,RRIRDRPPRLPRPRPRPIEWPRP,0.015
25,RRIRQRPPRLPRPRPRPDTTPRP,0.0217
